Source: patent US20250115656A1 (Stanford University, published 2025)

Target: the molecule itself
Experiment: cryo-EM in detergent; HS-AFM in lipid bilayer
Procedure: Briefly, for reconstituted lipids, we used a mixture of phospholipids, asolectin from soybean (Sigma-Aldrich, No. 11145). Asolectin (120 μg) was dissolved in chloroform and then evaporated under N2 gas to completely remove the solvent. Then, the lipids were suspended in 50 μL buffer A (20 mM HEPES-KOH pH 7.4, 100 mM NaCl, and 4% DDM) and sonicated for ˜1 min with a tip-sonicator. Next, dissolved membrane proteins (1 nmol) and MSP (50 μL, 1 mg/mL) (MSP1E3D1, Sigma-Aldrich, No. M7074) were added to the lipid suspension and mixed for ˜1 h while rotating in the dark at 4° C. Finally, we added 60 mg Bio-beads SM-2 (Bio-Rad, Hercules, CA, USA, No. 1523920) and dialyzed the samples in detergent overnight at 4° C. According to the manufacturer's protocol, nanodisc samples should be fractionated on a column to purify the nanodiscs based on size (˜10 nm in diameter).
A homemade HS-AFM operated in tapping mode was used (Shibata et al., 2017, 2018). An optical beam deflection detector detected the cantilever (Olympus, Tokyo, Japan: BL-AC10DS-A2) deflection using an infrared (IR) laser at 780 nm and 0.7 mW. The IR beam was focused onto the back side of the cantilever covered with a gold film through a ×60 objective lens (Nikon, Tokyo, Japan: CFI S Plan Fluor ELWD 60×). The reflected IR beam was detected by a two-segmented PIN photodiode. […]

B1: Wild-type ChRmine (M1-R304) (other)
chain: MAHAPGTDQMFYVGTMDGWYLDTKLNSVAIGAHWSCFIVLTITTFYLGYESWTSRGPSKRTSFYAGYQEEQNLALFVNFFAMLSYFGKIVADTLGHNFGDVGPFIIGFGNYRYADYMLTCPMLVYDLLYQLRAPYRVSCSAIIFAILMSGVLAEFYAEGDPRLRNGAYAWYGFGCFWFIFAYSIVMSIVAKQYSRLAQLAQDTGAEHSLHVLKFAVFTFSMLWILFPLVWAICPRGFGWIDDNWTEVAHCVCDIVAKSCYGFALARFRKTYDEELFRLLEQLGHDEDEFQKLELDMRLSSNGER
modifications: all-trans retinal covalently linked at K257 (Schiff base)
notes: Pump-like cation-conducting channelrhodopsin, purified from Sf9 cells in GDN/CHS detergent; It forms a homotrimer; The model covers residues 10-279; also called WT ChRmine; ChRmine WT
binding result: binds
